T1: human iRhom1 (Homo sapiens, UniProt Q96CC6)
T1 construct: expressed in transfected cells; host or cells: immortalized iRhom1/2-/- DKO mouse embryonic fibroblasts, pMSCV retroviral infection
T1 sequence (Q96CC6 1-855): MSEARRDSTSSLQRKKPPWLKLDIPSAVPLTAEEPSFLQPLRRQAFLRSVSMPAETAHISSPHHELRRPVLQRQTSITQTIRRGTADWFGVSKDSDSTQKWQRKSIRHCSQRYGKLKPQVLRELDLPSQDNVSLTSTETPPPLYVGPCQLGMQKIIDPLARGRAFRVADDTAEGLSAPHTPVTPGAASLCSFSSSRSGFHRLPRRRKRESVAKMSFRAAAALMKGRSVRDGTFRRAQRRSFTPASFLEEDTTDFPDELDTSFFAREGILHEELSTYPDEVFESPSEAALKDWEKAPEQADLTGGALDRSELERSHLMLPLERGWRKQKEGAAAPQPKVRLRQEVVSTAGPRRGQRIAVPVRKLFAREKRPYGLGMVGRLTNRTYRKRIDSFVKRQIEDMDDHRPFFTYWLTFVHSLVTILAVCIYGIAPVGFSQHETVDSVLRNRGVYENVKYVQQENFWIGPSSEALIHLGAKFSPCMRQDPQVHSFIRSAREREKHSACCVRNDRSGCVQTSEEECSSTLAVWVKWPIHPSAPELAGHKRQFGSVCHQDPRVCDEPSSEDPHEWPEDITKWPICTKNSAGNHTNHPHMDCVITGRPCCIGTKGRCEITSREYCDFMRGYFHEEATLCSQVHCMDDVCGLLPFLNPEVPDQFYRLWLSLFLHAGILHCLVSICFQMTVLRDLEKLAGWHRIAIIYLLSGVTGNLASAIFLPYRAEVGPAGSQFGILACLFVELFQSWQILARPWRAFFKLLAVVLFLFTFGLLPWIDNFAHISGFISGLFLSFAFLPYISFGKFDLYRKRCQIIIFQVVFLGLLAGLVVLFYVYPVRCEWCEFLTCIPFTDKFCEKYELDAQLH

B1: 23-B-04: humanized antibody binding human iRhom2; HCVD SEQ ID NO 25, LCVD SEQ ID NO 29 (antibody, V domains shown)
VH: QVTLRESGPALVKPTQTLTLTCTFSGFSLSTFGMGVGWIRQPPGKALEWLAHIWWDDEKYYNSALKSRLTISKDTSKNQVVLTITNMDPVDTATYYCARISNYGSNYWYFNVWGQGTLVTVSS
VL: AIQLTQSPSSLSASVGDRVTITCRASSSVSYMYWYQQKPGKAPKVLIYDTSNLASGVPSRFSGSGSGTDYTLTISSLQPEDFATYYCQQWNAYPLTFGQGTKLEIK
modifications: antibody sequences
B2: 42-B-02: humanized antibody binding human iRhom2; HCVD SEQ ID NO 33, LCVD SEQ ID NO 37 (antibody, V domains shown)
VH: QVTLRESGPALVKPTQTLTLTCTFSGFSLSTFGRGVGWIRQPPGKALEWLAHIWWDDEKYYNSALKSRLTISKDTSKNQVVLTITNMDPVDTATYYCARIQNYGSNYWYFDVWGQGTLVTVSS
VL: AIQLTQSPSSLSASVGDRVTITCRASSRISYMFWYQQKPGKAPKVLIYDTSNLASGVPSRFSGSGSGTDYTLTISSLQPEDFATYYCQQWNSYPLTFGQGTKLEIK
modifications: antibody sequences
B3: 42-B-04: humanized antibody binding human iRhom2; HCVD SEQ ID NO 41, LCVD SEQ ID NO 45 (antibody, V domains shown)
VH: QVTLRESGPALVKPTQTLTLTCTFSGFSLSTFGRGVGWIRQPPGKALEWLAHIWWDDEKYYNSALKSRLTISKDTSKNQVVLTITNMDPVDTATYYCARIQNYGSNYWYFDVWGQGTLVTVSS
VL: AIQLTQSPSSLSASVGDRVTITCRASSRISYMFWYQQKPGKAPKVLIYDTSNLASGVPSRFSGSGSGTDYTLTISSLQPEDFATYYCQQWNAYPLTFGQGTKLEIK
modifications: antibody sequences
B4: 16-B-03: humanized antibody binding human iRhom2; HCVD SEQ ID NO 1, LCVD SEQ ID NO 5 (antibody, V domains shown)
VH: QVTLRESGPALVKPTQTLTLTCTFSGFSLSTFALGVGWIRQPPGKALEWLAHIWWDDDKYYNPALKSRLTISKDTSKNQVVLTITNMDPVDTATYYCARITTYYYGMDYWGQGTLVTVSS
VL: EIVMTQSPDFQSVTPKEKVTITCRASQSIGNHLHWYQQKPDASPKLLIKYASQSISGVPSRFSGSGSGTDFTLTINSLEAEDAATYFCQQSYQWPLTFGQGTKLEIK
modifications: antibody sequences
B5: 16-B-05: humanized antibody binding human iRhom2; HCVD SEQ ID NO 9, LCVD SEQ ID NO 13 (antibody, V domains shown)
VH: QVTLRESGPALVKPTQTLTLTCTFSGFSLSTFALGVGWIRQPPGKALEWLAHIWWDEDKYYNPALKSRLTISKDTSKNQVVLTITNMDPVDTATYYCARITTYYYGMDYWGQGTLVTVSS
VL: EIVMTQSPDFQSVTPKEKVTITCRASQSIGNHLHWYQQKPDASPKLLIKYASQSISGVPSRFSGSGSGTDFTLTINSLEAEDAATYFCQQSYNWPLTFGQGTKLEIK
modifications: antibody sequences
B6: 16-B-07: humanized antibody binding human iRhom2; HCVD SEQ ID NO 17, LCVD SEQ ID NO 21 (antibody, V domains shown)
VH: QVTLRESGPALVKPTQTLTLTCTFSGFSLSTFALGVGWIRQPPGKALEWLAHIWWDEDKYYNPALKSRLTISKDTSKNQVVLTITNMDPVDTATYYCARITTYYYGMDYWGQGTLVTVSS
VL: EIVMTQSPDFQSVTPKEKVTITCRASQSIGNHLHWYQQKPDASPKLLIKYASQSISGVPSRFSGSGSGTDFTLTINSLEAEDAATYFCQQSYQWPLTFGQGTKLEIK
modifications: antibody sequences

For the assay, the target named is T1, human iRhom1. Kind of assay: FACS binding specificity on MEF-DKO-hiR1-FL-WT-T7 cells. The following applies: antibody at 3 μg/ml. Here is the method: Due to the sequence homology of the human iRhom2 protein versus its closely related family member human iRhom1 (referring to the NCBI reference sequence NP_078875.4. for human iRhom2 and the NCBI reference sequence NP_071895.3 for human iRhom1, the amino acid sequence identity for the extracellular loops 1, 2, 3 and the C-terminal tail of human iRhom2 versus human iRhom1 are calculated as 67.4%, 100.00%, 80.00% and 63.64%, respectively), the binding specificity of the humanized antibodies 16-B-03, 16-B-05, 16-B-07, 23-B-04, 42-B-02, 42-B-04 of the invention for human iRhom2 versus human iRhom1 was assessed as a next step. For this purpose, iRhom1/2−/− DKO MEFs stably expressing a tagged form of human iRhom1 were generated.
In brief, on day 1, Phoenix-ECO cells (American Type Culture Collection, USA) were seeded on 6-well tissue culture plates (Greiner, Germany) in standard growth medium at 8×10^5 cells per well and kept overnight at 37° C., 5% CO2. On day 2, the medium was replaced by fresh medium supplemented with chloroquine (Sigma-Aldrich, USA) at a final concentration of 25 μM. Applying the calcium phosphate method, cells were transfected with 2 μg/ml of pMSCV-hiR1-FL-WT-T7 (SEQ ID NO 50) encoding human iRhom1 full length wild type C-terminally tagged with 3 consecutive copies of the T7 epitope, and were kept at 37° C., 5% CO2. After 7 hours, the transfections were stopped by replacing cell supernatants with standard growth medium lacking chloroquine, and cells were incubated at 37° C., 5% CO2 to allow virus production overnight. In parallel, immortalized iRhom1/2−/− DKO MEFs as target cells for retroviral infection were seeded on 6-well tissue culture plates (Greiner, Germany) in standard growth medium at 1×10^5 cells per well and were also kept overnight at 37° C., 5% CO2. On day 3, the supernatants of Phoenix-ECO cells releasing pMSCV-hiR1-FL-WT-T7 ecotrophic virus were collected, filtered with 0.45 μm CA filters, and supplemented with 4 μg/ml of polybrene (Sigma-Aldrich, USA). Upon removal of medium from the immortalized iRhom1/2−/− DKO MEFs, these supernatants were added to the target cells for 4 hours at 37° C., 5% CO2 for first infection. Simultaneously, Phoenix-ECO cells were re-incubated with fresh medium, which, after another 4 hours, was filtered and used for the second infection of the respective target cell populations, again in the presence of 4 μg/ml of polybrene. Likewise, a third, but overnight infection cycle was performed. On day 4, virus containing cell supernatants were replaced by fresh standard growth medium. From day 5 onwards, cells were grown in the presence of 2 mg/ml of geneticin (G418, Thermo Fisher Scientific, USA) for the selection of immortalized MEF-DKO-hiR1-FL-WT-T7 cells stably expressing human iRhom1 full length wild type C-terminally tagged with 3 consecutive copies of the T7 epitope. Upon propagation, cells were stocked for future usage.
In brief, in addition to immortalized MEF-DKO-EV control cells and MEF-DKO-hiR2-FL-WT-T7 cells (as already described in example 3), MEF-DKO-hiR1-FL-WT-T7 cells were harvested with 10 mM EDTA in PBS, washed and resuspended in FACS buffer (PBS, 3% FBS, 0.05% sodium azide), and seeded in Nunc U-bottom 96-well plates (Thermo Fisher Scientific, USA) at approximately 3×10^5 cells per well. To pellet cells and remove supernatants, the plates were centrifuged at 1,500 rpm and 4° C. for 3 minutes. For primary staining, cells were resuspended in 100 μl per well of either FACS buffer alone (controls), mouse monoclonal anti-T7 IgG (Merck Millipore, USA) at 3 μg/ml FACS buffer or the humanized antibodies 16-B-03, 16-B-05, 16-B-07, 23-B-04, 42-B-02, 42-B-04 of the invention also at 3 μg/ml FACS buffer and incubated on ice for 1 hour. Afterwards, plates were centrifuged at 1,500 rpm and 4° C. for 3 minutes and washed twice with 200 μl per well of FACS buffer. […]
For orientation: Flow cytometry measures light scatter and fluorescence of single cells or particles in a stream.
Take B1: the “binding to human iRhom1 on MEF-DKO-hiR1-FL-WT-T7 cells” value (“binding to human iRhom1” for short) is given as “none of these humanized antibodies of the invention recognizes human iRhom1”.

Regarding B2, the “binding to human iRhom1” value was “none of these humanized antibodies of the invention recognizes human iRhom1”.

B3: the “binding to human iRhom1” value is on record as “none of these humanized antibodies of the invention recognizes human iRhom1”.

For the molecule B4, the “binding to human iRhom1” value is “no significant binding”.

In the case of B5, the “binding to human iRhom1” value was “none of these humanized antibodies of the invention recognizes human iRhom1”.

Consider B6, for which the “binding to human iRhom1” value is reported as “none of these humanized antibodies of the invention recognizes human iRhom1”.

The record behind these values is patent US12404345B2, “Humanized antibodies against iRHOM2” (SCIRHOM GMBH, priority 2021, dated 2025).
